Reference: patent publication US20210070881A1 (DENALI THERAPEUTICS, published 2021)

Tests used:
[1] = molecular target: cellular BACE1 in CHOK1-huAPP cells; assay: cell-based or functional assay
[2] = molecular target: T1, recombinant BACE1 (BACE1 extracellular domain, R&D Systems Cat#931-AS) (UniProt P56817 22-457); assay: SPR Biacore 8K, antibody captured, BACE1 analyte
T1 construct: extracellular domain; also called BACE1 extracellular domain protein
Procedure: (§1) The binding affinities of the affinity matured humanized 2H8 variants for BACE1 were determined by surface plasmon resonance using a Biacore™ 8K instrument. […] The binding was monitored for 300 seconds and then dissociation was monitored for 600+ seconds in HBS-EP+ running buffer (GE Healthcare Life Sciences, BR100669). Binding response was corrected by subtracting the RU from a blank flow cell. A 1:1 Langmuir model of simultaneous fitting of kₒₙ and koff was used for kinetics analysis.

[3] = molecular target: T1, recombinant BACE1 (BACE1 extracellular …); assay: SPR Biacore
[4] = molecular target: T1, recombinant BACE1 (BACE1 extracellular …); assay: SPR Biacore 8K, antibody captured, BACE1 analyte; remark: listed apart in the source
Procedure: as §1

T1 sequence (P56817 22-457): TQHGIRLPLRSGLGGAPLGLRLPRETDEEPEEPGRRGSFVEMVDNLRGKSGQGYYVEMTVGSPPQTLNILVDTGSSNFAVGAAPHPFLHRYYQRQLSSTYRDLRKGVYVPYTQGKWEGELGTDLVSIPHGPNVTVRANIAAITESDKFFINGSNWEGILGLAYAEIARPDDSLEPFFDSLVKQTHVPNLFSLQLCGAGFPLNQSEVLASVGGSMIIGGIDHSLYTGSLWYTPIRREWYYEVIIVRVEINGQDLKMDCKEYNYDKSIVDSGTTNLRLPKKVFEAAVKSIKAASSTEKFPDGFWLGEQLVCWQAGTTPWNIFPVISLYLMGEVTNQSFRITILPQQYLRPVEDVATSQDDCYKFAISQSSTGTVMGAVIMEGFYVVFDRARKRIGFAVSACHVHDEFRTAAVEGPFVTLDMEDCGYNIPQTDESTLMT

B1: hu2H8v29 (antibody, V domains shown)
VH: QVQLVQSGAEVKKPGASVKVSCKASGYTFTNFWIHWVRQAPGQGLEWMGMIDPSDSYTKYNQKFKARATLTVDTSTSTVYMELSSLRSEDTAVYYCARSGVAFPYWGQGTLVTVSS
VL: DIQMTQSPSSLSASVGDRVTITCKASQDVGRNVAWYQQKPGKSPKSLIYSASHRYSGVPSRFSGSGSGTDFTLTISSLQPEDFATYFCQQYNSYPYTFGQGTKVEIK
notes: humanized; also called hu2H8_HC6 + hu2H8_LC5
IC50 [1]: 14.8 nM | Max. % inhibition [1]: 86% | Kd [2]: 9.21 nM | Kd [3]: 12 nM | Kd [4]: 9.21 nM

B2: hu2H8v29.9 (antibody, V domains shown)
VH: QVQLVQSGAEVKKPGASVKVSCKASGYTFTNFWIHWVRQAPGQGLEWMGMIDPSDSYTKYNQKFKARATLTVDTSTSTVYMELSSLRSEDTAVYYCARSGVAFPYWGQGTLVTVSS
VL: DIQMTQSPSSLSASVGDRVTITCKASQDVGRNVAWYQQKPGKSPKSLIYSASHRYSGVPSRFSGSGSGTDFTLTISSLQPEDFATYFCQQYNAYPYTFGQGTKVEIK
notes: captured via human Fc; also called hu2H8_HC6 + hu2H8_LC5.9
Kd [2]: 11 nM

B3: hu2H8v27 (antibody, V domains shown)
VH: QVQLVQSGAEVKKPGASVKVSCKASGYTFTNFWIHWLRQAPGQGLEWMGMIDPSDSYTKYNQKFKARVTMTVDTSTSTTYMELSSLRSEDTAVYYCARSGVAFPYWGQGTLVTVSS
VL: DIQMTQSPSSLSASVGDRVTITCKASQDVGRNVAWYQQKPGKSPKSLIYSASHRYSGVPSRFSGSGSGTDFTLTISSLQPEDFATYFCQQYNSYPYTFGQGTKVEIK
notes: humanized; also called hu2H8_HC3 + hu2H8_LC5
IC50 [1]: 16.5 nM | Max. % inhibition [1]: 85% | Kd [3]: 12.8 nM

B4: hu2H8v29.10 (antibody, V domains shown)
VH: QVQLVQSGAEVKKPGASVKVSCKASGYTFTNFWIHWVRQAPGQGLEWMGMIDPSDSYTKYNQKFKARATLTVDTSTSTVYMELSSLRSEDTAVYYCARSGVAFPYWGQGTLVTVSS
VL: DIQMTQSPSSLSASVGDRVTITCKASQDVGRNVAWYQQKPGKSPKSLIYSASHRYSGVPSRFSGSGSGTDFTLTISSLQPEDFATYFCQQYYSYPYTFGQGTKVEIK
notes: captured via human Fc; also called hu2H8_HC6 + hu2H8_LC5.10
Kd [2]: 4.84 nM

B5: hu2H8v29.11 (antibody, V domains shown)
VH: QVQLVQSGAEVKKPGASVKVSCKASGYTFTNFWIHWVRQAPGQGLEWMGMIDPSDSYTKYNQKFKARATLTVDTSTSTVYMELSSLRSEDTAVYYCARSGVAFPYWGQGTLVTVSS
VL: DIQMTQSPSSLSASVGDRVTITCKASQDVGRNVAWYQQKPGKSPKSLIYSASHRYSGVPSRFSGSGSGTDFTLTISSLQPEDFATYFCQQYYSYAYTFGQGTKVEIK
notes: captured via human Fc; also called hu2H8_HC6 + hu2H8_LC5.11
Kd [2]: 4.83 nM

B6: hu2H8v29.8 (antibody, V domains shown)
VH: QVQLVQSGAEVKKPGASVKVSCKASGYTFTNFWIHWVRQAPGQGLEWMGMIDPSDSYTKYNQKFKARATLTVDTSTSTVYMELSSLRSEDTAVYYCARSGVAFPYWGQGTLVTVSS
VL: DIQMTQSPSSLSASVGDRVTITCKASQDVGRNVAWYQQKPGKSPKSLIYSASHRYSGVPSRFSGSGSGTDFTLTISSLQPEDFATYFCQQYQSYPYTFGQGTKVEIK
notes: captured via human Fc; also called hu2H8_HC6 + hu2H8_LC5.8
Kd [2]: 8.1 nM

B7: hu2H8v29.7 (antibody, V domains shown)
VH: QVQLVQSGAEVKKPGASVKVSCKASGYTFTNFWIHWVRQAPGQGLEWMGMIDPSDSYTKYNQKFKARATLTVDTSTSTVYMELSSLRSEDTAVYYCARSGVAFPYWGQGTLVTVSS
VL: DIQMTQSPSSLSASVGDRVTITCKASQDVGRNVAWYQQKPGKSPKSLIYSASHRYSGVPSRFSGSGSGTDFTLTISSLQPEDFATYFCQQYSSYPYTFGQGTKVEIK
notes: captured via human Fc; also called hu2H8_HC6 + hu2H8_LC5.7
Kd [2]: 4.99 nM

B8: hu2H8v17 (antibody, V domains shown)
VH: QVQLVQSGAEVKKPGASVKVSCKASGYTFTNFWIHWVRQAPGQGLEWMGMIDPSDSYTKYNQKFKARATLTVDTSTSTVYMELSSLRSEDTAVYYCARSGVAFPYWGQGTLVTVSS
VL: DIQMTQSPSSLSASVGDRVTITCKASQDVGRNVAWYQQKPGKAPKSLIYSASHRYSGVPSRFSGSGSGTDFTLTISSLQPEDFATYYCQQYNSYPYTFGQGTKVEIK
notes: humanized; also called hu2H8_HC6 + hu2H8_LC3
IC50 [1]: 22.1 nM | Max. % inhibition [1]: 91% | Kd [3]: 12.1 nM
